For assay [1], the target named is T1, extracellular domain of human ROR2 (human, UniProt Q01974 34-403).
T1 construct: bought protein; biotinylated in the bivalent assay format; also called Acro Cat. No. RO2-H52E5
The assay can be described thus: BLI, IgG1 on biosensor, soluble ROR ectodomain. From the text:
(§1) To measure binding affinity in ROR binder discovery campaigns, the VL and VH domains identified in the phage screen described above were formatted into a bivalent monospecific native human full-length IgG1 architecture and immobilized to a biosensor on an Octet (Pall ForteBio) biolayer interferometer. Soluble ROR antigens, including the extracellular domains of ROR1 (Acro Cat. No. RO1-H522γ) and ROR2 (Acro Cat. No. R02-H52E5), as well as the individual ROR1 Frizzled (Acro Cat. No. RO1-H5222), Ig-like (Acro Cat. No. RO1-H5221), and Kringle (Acro Cat. No. RO1-H5223) domains, were then added to the system and binding measured.
(§2) ROR binding candidates, formatted in the bivalent monospecific native human full-length IgG1 architecture, were further characterized for binding to ROR1 and/or ROR2. […] ROR binding candidates were also characterized for their binding to specific ROR1 domains.
(In BLI a coated tip is dipped into the sample, and binding shifts an interference pattern.)

The target of assay [2] is T2, extracellular domain of human ROR1 (human, UniProt Q01973 30-406).
T2 construct: bought protein; biotinylated in the bivalent assay format; also called Acro Cat. No. RO1-H522y
T2 sequence (Q01973 30-406 limits assumed): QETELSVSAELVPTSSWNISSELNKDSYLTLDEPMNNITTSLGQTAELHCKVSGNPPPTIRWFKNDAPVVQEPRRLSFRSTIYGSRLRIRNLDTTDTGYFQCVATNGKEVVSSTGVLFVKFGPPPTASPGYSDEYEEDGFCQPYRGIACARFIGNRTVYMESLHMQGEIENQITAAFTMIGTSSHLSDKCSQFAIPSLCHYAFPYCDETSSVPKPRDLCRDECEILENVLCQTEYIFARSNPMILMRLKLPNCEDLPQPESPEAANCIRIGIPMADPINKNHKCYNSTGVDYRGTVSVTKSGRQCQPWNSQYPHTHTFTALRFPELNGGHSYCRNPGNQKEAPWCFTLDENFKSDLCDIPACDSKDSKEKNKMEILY
The assay is described as follows: BLI (Octet), IgG1, two-fold serial dilution 200-12.5 nM.
Excerpt: as §1
The VH and VL sequences above were formatted into a bivalent monospecific native human full-length IgG1 architecture.

For assay [3], the target named is T2, extracellular domain of human ROR1. The assay can be described thus: BLI, IgG1 on biosensor, soluble ROR ectodomain.
Excerpt: as §1, §2

The target of the next assay is T3, ROR1 Frizzled domain (human, UniProt Q01973 165-299).
T3 construct: also called FZ domain; Acro Cat. No. RO1-H5222
T3 sequence (Q01973 165-299): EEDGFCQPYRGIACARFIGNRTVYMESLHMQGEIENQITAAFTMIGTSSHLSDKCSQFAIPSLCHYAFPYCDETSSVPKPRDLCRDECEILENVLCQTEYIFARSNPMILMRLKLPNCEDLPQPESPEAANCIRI
The assay can be described thus: BLI, IgG1 on biosensor, soluble ROR1 domain.
Excerpt: as §1, §2

Assay [4] has as its target human CD3 delta and epsilon heterodimer (human, UniProt P07766 23-126; P04234 22-105). The assay is described as follows: BLI (Octet), two-fold serial dilution 200-12.5 nM of the construct.
The target of another assay is ROR1 on tumor cell lines (human, UniProt Q01973 30-937). The assay can be described thus: cell-based or functional assay.
Sequence of ROR1 on tumor cell lines (Q01973 30-937 limits assumed): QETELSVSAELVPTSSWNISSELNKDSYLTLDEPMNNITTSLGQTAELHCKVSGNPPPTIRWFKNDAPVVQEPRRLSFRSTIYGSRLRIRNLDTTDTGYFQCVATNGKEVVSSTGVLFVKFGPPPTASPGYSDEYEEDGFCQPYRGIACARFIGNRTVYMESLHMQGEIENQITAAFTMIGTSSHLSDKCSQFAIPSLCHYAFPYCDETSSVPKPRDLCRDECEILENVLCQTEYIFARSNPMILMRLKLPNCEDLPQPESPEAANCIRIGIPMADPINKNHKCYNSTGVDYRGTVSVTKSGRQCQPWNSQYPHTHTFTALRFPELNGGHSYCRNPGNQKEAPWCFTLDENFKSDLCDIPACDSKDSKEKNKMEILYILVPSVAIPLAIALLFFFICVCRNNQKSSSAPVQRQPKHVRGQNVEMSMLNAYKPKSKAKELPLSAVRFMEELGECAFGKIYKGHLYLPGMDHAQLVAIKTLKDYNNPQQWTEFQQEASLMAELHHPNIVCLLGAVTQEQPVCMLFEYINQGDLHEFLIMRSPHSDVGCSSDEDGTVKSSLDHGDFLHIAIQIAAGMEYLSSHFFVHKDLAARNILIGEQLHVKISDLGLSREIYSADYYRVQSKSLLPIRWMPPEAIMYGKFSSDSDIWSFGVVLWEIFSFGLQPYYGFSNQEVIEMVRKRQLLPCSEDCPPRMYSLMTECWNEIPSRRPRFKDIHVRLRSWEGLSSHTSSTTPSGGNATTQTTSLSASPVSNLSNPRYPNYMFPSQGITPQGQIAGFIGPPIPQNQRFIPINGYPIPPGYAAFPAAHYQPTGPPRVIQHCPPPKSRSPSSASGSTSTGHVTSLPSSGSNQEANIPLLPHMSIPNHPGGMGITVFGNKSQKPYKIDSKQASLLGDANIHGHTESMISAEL

Sequence of human CD3 delta and epsilon heterodimer (P07766 23-126, stated change not applied, chain 1 of 2): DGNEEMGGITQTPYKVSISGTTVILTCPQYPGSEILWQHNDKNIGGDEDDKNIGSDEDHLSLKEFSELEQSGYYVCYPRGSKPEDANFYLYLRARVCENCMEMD
Sequence of human CD3 delta and epsilon heterodimer (P04234 22-105, stated change not applied, chain 2 of 2): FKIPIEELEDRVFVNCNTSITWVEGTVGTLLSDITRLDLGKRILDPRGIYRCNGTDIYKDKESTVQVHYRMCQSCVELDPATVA
T1 sequence (Q01974 34-403 limits assumed): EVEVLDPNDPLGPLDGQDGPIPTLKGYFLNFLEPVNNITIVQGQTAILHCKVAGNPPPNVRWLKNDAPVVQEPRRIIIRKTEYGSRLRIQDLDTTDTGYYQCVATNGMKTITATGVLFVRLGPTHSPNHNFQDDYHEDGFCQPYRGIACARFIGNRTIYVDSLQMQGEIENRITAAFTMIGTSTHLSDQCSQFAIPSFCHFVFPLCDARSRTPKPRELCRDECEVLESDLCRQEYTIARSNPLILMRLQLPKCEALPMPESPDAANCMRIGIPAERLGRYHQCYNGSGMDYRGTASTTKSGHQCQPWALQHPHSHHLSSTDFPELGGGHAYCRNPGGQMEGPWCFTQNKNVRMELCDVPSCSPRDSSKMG

B1: I2A-10 IgG1 (antibody, V domains shown)
VH: EVQLVESGGGLVQPGGSLRLSCAASGFTFSSYFIHWVRQAPGKGLEWVAGIYPSDGYTSYADSVKGRFTISADTSKNTAYLQMNSLRAEDTAVYYCARYYVSGMDYWGQGTLVTVSS
VL: DIQMTQSPSSLSASVGDRVTITCRASQSVSSAVAWYQQKPGKAPKLLIYSASSLYSGVPSRFSGSRSGTDFTLTISSLQPEDFATYYCQQYYYYPGTFGQGTKVEIKR
notes: bivalent monospecific native human full-length IgG1; the Domain F / Domain A entries end with AS / RT of the junction to the constant domain; also called clone I2-A10
By Kd is commonly meant a measure of binding affinity in units of concentration. Higher therefore signals a looser complex. As a reminder, the koff is the first-order rate constant of dissociation. Low readings indicate a long-lived complex, high ones a short-lived complex. The kon is the rate constant with which the complex forms. Consider B1, for which, in assay [1], the binding result was “binds”. Besides, in assay [2], the Kd worked out at 0.82 nM, the koff came out at 0.00038 s⁻¹ and the kon was 538000 M⁻¹ s⁻¹.

B2: I2C-23 IgG1 (antibody, V domains shown)
VH: EVQLVESGGGLVQPGGSLRLSCAASGFTFSSYEIHWVRQAPGKGLEWVASIYPFSGDTYYADSVKGRFTISADTSKNTAYLQMNSLRAEDTAVYYCARPGRAIYYAVMDYWGQGTLVTVSS
VL: DIQMTQSPSSLSASVGDRVTITCRASQSVSSAVAWYQQKPGKAPKLLIYSASSLYSGVPSRFSGSRSGTDFTLTISSLQPEDFATYYCQQAGSHLFTFGQGTKVEIK
notes: human IgG1
For B2, the binding result (in assay [3]; in assay [1]; with ROR1 Frizzled domain) was “binds” throughout.

B3: I2C-6 IgG1 (antibody, V domains shown)
VH: EVQLVESGGGLVQPGGSLRLSCAASGFTFSWYFIHWVRQAPGKGLEWVARIYSTGGYTEYADSVKGRFTISADTSKNTAYLQMNSLRAEDTAVYYCARSAFFGALDYWGQGTLVTVSS
VL: DIQMTQSPSSLSASVGDRVTITCRASQSVSSAVAWYQQKPGKAPKLLIYSASSLYSGVPSRFSGSRSGTDFTLTISSLQPEDFATYYCQQYPSGPETFGQGTKVEIK
notes: human IgG1
Take B3: the binding result (in assay [3]; in assay [1]; with ROR1 Frizzled domain) was “binds” each time.

B4: I2A-19 IgG1 (antibody, V domains shown)
VH: EVQLVESGGGLVQPGGSLRLSCAASGFTFSSYFIHWVRQAPGKGLEWVAWIYPSGSYTYYADSVKGRFTISADTSKNTAYLQMNSLRAEDTAVYYCAREMDRVGYSGMDYWGQGTLVTVSS
VL: DIQMTQSPSSLSASVGDRVTITCRASQSVSSAVAWYQQKPGKAPKLLIYSASSLYSGVPSRFSGSRSGTDFTLTISSLQPEDFATYYCQQYRTPLGTFGQGTKVEIK
notes: human IgG1
For B4, the binding result (in assay [3]; in assay [1]; with ROR1 Frizzled domain) was “binds” each time.

B5: I2A-34 IgG1 (antibody, V domains shown)
VH: EVQLVESGGGLVQPGGSLRLSCAASGFTFSWYVIHWVRQAPGKGLEWVAYIAPYTGSTYYADSVKGRFTISADTSKNTAYLQMNSLRAEDTAVYYCARAFFGIRLGLDYWGQGTLVTVSS
VL: DIQMTQSPSSLSASVGDRVTITCRASQSVSSAVAWYQQKPGKAPKLLIYSASSLYSGVPSRFSGSRSGTDFTLTISSLQPEDFATYYCQQAISSPYTFGQGTKVEIK
notes: human IgG1
B5: the binding result (in assay [3]; in assay [1]; with ROR1 Frizzled domain) was “binds” each time.

B6: I2A-11 IgG1 (antibody, V domains shown)
VH: EVQLVESGGGLVQPGGSLRLSCAASGFTFSSYVIHWVRQAPGKGLEWVAAIYPYTSSTQYADSVKGRFTISADTSKNTAYLQMNSLRAEDTAVYYCARSYGTGGFDYWGQGTLVTVSS
VL: DIQMTQSPSSLSASVGDRVTITCRASQSVSSAVAWYQQKPGKAPKLLIYSASSLYSGVPSRFSGSRSGTDFTLTISSLQPEDFATYYCQQWYSYPLTFGQGTKVEIK
notes: human IgG1
For B6, the binding result (in assay [3]; in assay [1]; with ROR1 Frizzled domain) was “binds” in each case.

B7: I2A-32 IgG1 (antibody, V domains shown)
VH: EVQLVESGGGLVQPGGSLRLSCAASGFTFQSYVIHWVRQAPGKGLEWVAAIYPYSSSTIYADSVKGRFTISADTSKNTAYLQMNSLRAEDTAVYYCARSWSVYLGMDYWGQGTLVTVSS
VL: DIQMTQSPSSLSASVGDRVTITCRASQSVSSAVAWYQQKPGKAPKLLIYSASSLYSGVPSRFSGSRSGTDFTLTISSLQPEDFATYYCQQSYDSPRTFGQGTKVEIK
notes: human IgG1
On to B7, for which the figures for the binding result (in assay [3]; in assay [1]; in the assay with ROR1 Frizzled domain) were “binds”, “no binding” and “binds”, respectively.

B8: I2A-25 IgG1 (antibody, V domains shown)
VH: EVQLVESGGGLVQPGGSLRLSCAASGFTFYGYTIHWVRQAPGKGLEWVAAIYPYTDSTRYADSVKGRFTISADTSKNTAYLQMNSLRAEDTAVYYCARDYRRALDYWGQGTLVTVSS
VL: DIQMTQSPSSLSASVGDRVTITCRASQSVSSAVAWYQQKPGKAPKLLIYSASSLYSGVPSRFSGSRSGTDFTLTISSLQPEDFATYYCQQYTDFPWTFGQGTKVEIK
notes: human IgG1
Consider B8, for which the figures for the binding result (in assay [3]; in assay [1]; with ROR1 Frizzled domain) were “binds”, “no binding” and “binds”, respectively.

B9: non-mutagenized SP34-89 monovalent B-Body (bispecific antibody, V domains shown)
VH: EVQLVESGGGLVQPGGSLRLSCAASGFTFNTYAMNWVRQAPGKGLEWVARIRSKYNNYATYYADSVKGRFSISRDDSKNTAYLQMNSLRAEDTAVYYCVRHGNFGNSYVSWFAYWGQGTLVTV
VL: QAVVTQEPSLTVSPGGTVTLTCRSSTGAVTTSNYANWVQQKPGQAPRGLIGGTNKRAPWTPARFSGSLLGGKAALTITGAQAEDEADYYCALWYSNLWVFGGGTKLTVL
notes: cloned into one arm of a 1×1 BC1 B-Body
With B9, in assay [4], the Kd turned out to be 23 nM, the koff came out at 0.0071 s⁻¹ and the kon was determined as 300000 M⁻¹ s⁻¹.

B10: I2A-10 BC1 1×2 B-body (I2A-10 x SP34-89) (bispecific antibody)
chain 1: not shown
chain 2: EVQLVESGGGLVQPGGSLRLSCAASGFTFSSYFIHWVRQAPGKGLEWVAGIYPSDGYTSYADSVKGRFTISADTSKNTAYLQMNSLRAEDTAVYYCARYYSGMDYWGQGTLVTVSSASPREPQVYTDPPSRDELTKNQVSLTCLVKGFYPSDIAVEWESNGQPENNYKTTPPVLDSDGSFFLYSKLTVDKSRWQQGNVFSCSVMHEALHNHYTQKSLSLSGEC
chain 3: DIQMTQSPSSLSASVGDRVTITCRASQSVSSAVAWYQQKPGKAPKLLIYSASSLYSGVPSRFSGSRSGTDFTLTISSLQPEDFATYYCQQYYYYPGTFGQGTKVEIKRTPREPQVYTLPPSRDELTKNQVSLKCLVKGFYPSDIAVEWESNGQPENNYKTTPPVLDSDGSFFLYSKLTVDKSRWQQGNVFSCSVMHEALHNHYTQKSLSLSKSCTASSGGSSSGQAVVTQEPSLTVSPGGTVTLTCRSSTGAVTTSNYANWVQQKPGQAPRGLIGGTNKRAPWTPARFSGSLLGGKAALTITGAQAEDEADYYCALWYSNLWVFGGGTKLTVLGRTVAAPSVFIFPPSDEQLKSGTASVVCLLNNFYPREAKVQWKVDNALQSGNSQESVTEQDSKDSTYSLSSTLTLSKADYEKHKVYACEVTHQGLSSPVTKSFNRGECDKTHTCPPCPAPEAAGGPSVFLFPPKPKDTLMISRTPEVTCVVVDVSHEDPEVKFNWYVDGVEVHNAKTKPREEQYNSTYRVVSVLTVLHQDWLNGKEYKCKVSNKALKAPIEKTISKAKGQPREPQVCTLPPSREEMTKNQVSLSCAVKGFYPSDIAVEWESNGQPENNYKTTPPVLDSDGSFFLVSKLTVDKSRWQQGNVFSCSVMHEALHNHYTQKSLSLSPGK
chain 4: EVQLVESGGGLVQPGGSLRLSCAASGFTFNTYAMNWVRQAPGKGLEWVARIRSKYNNYATYYADSVKGRFSISRDDSKNTAYLQMNSLRAEDTAVYYCVRHGNFGNSYVSWFAYWGQGTLVTVSSASTKGPSVFPLAPSSKSTSGGTAALGCLVKDYFPEPVTVSWNSGALTSGVHTFPAVLQSSGLYSLSSVVTVPSSSLGTQTYICNVNHKPSNTKVDKKVEPPKSC
Turning to B10, the “EC50, CD8+ T cell mediated killing of MDA-MB-231 (LDH)” value with ROR1 on tumor cell lines came to 13 pM.

B11: I2A-27 BC1 1×2 B-body (I2A-27 x SP34-89), Example 20 (bispecific antibody)
chain 1: not shown
chain 2: EVQLVESGGGLVQPGGSLRLSCAASGFTFKGYYIHWVRQAPGKGLEWVAAIYPYGGSTDYADSVKGRFTISADTSKNTAYLQMNSLRAEDTAVYYCARVYIYGVFDYWGQGTLVTVSSASPREPQVYTDPPSRDELTKNQVSLTCLVKGFYPSDIAVEWESNGQPENNYKTTPPVLDSDGSFFLYSKLTVDKSRWQQGNVFSCSVMHEALHNHYTQKSLSLSGEC
chain 3: DIQMTQSPSSLSASVGDRVTITCRASQSVSSAVAWYQQKPGKAPKLLIYSASSLYSGVPSRFSGSRSGTDFTLTISSLQPEDFATYYCQQYYSSPRTFGQGTKVEIKRTPREPQVYTLPPSRDELTKNQVSLKCLVKGFYPSDIAVEWESNGQPENNYKTTPPVLDSDGSFFLYSKLTVDKSRWQQGNVFSCSVMHEALHNHYTQKSLSLSKSCTASSGGSSSGQAVVTQEPSLTVSPGGTVTLTCRSSTGAVTTSNYANWVQQKPGQAPRGLIGGTNKRAPWTPARFSGSLLGGKAALTITGAQAEDEADYYCALWYSNLWVFGGGTKLTVLGRTVAAPSVFIFPPSDEQLKSGTASVVCLLNNFYPREAKVQWKVDNALQSGNSQESVTEQDSKDSTYSLSSTLTLSKADYEKHKVYACEVTHQGLSSPVTKSFNRGECDKTHTCPPCPAPEAAGGPSVFLFPPKPKDTLMISRTPEVTCVVVDVSHEDPEVKFNWYVDGVEVHNAKTKPREEQYNSTYRVVSVLTVLHQDWLNGKEYKCKVSNKALKAPIEKTISKAKGQPREPQVCTLPPSREEMTKNQVSLSCAVKGFYPSDIAVEWESNGQPENNYKTTPPVLDSDGSFFLVSKLTVDKSRWQQGNVFSCSVMHEALHNHYTQKSLSLSPGK
chain 4: EVQLVESGGGLVQPGGSLRLSCAASGFTFNTYAMNWVRQAPGKGLEWVARIRSKYNNYATYYADSVKGRFSISRDDSKNTAYLQMNSLRAEDTAVYYCVRHGNFGNSYVSWFAYWGQGTLVTVSSASTKGPSVFPLAPSSKSTSGGTAALGCLVKDYFPEPVTVSWNSGALTSGVHTFPAVLQSSGLYSLSSVVTVPSSSLGTQTYICNVNHKPSNTKVDKKVEPPKSC
Turning to B11, in the assay with ROR1 on tumor cell lines, the “EC50, CD8+ T cell mediated killing of MDA-MB-231 (LDH)” value was found to be 8.2 pM.

(Values after patent US20240392002A1 (EXELIXIS, published 2024).)
